Source: patent publication US20210340530A1 (INTELLIA THERAPEUTICS, published 2021)

Tests used:
[1] = biological target: T1, VLD-Tetramer (pMHC tetramer with WT1 peptide …); assay: flow cytometry, VLD-Tetramer staining of engineered T cells; TRAC RNP only
T1 construct: Staining reagent; also called VLD (Wilms' tumor antigen) tetramer; TCR specific pMHC tetramer
Experimental: (§1) Four to 12 days after RNP nucleofection, edited T cells (200 ul/200,000 cells) were collected in a 96 well round bottom plate and spun down at 500 g for 5 minutes. Cells were then resuspended in an antibody mixture containing a combination of antibodies targeting CD3, CD4, CD8, CD45RO, CD45RA, CD27, CCR7, CD62L, and/or the TCR specific pMHC tetramer or TCR specific Vbeta chain antibody. The mixture was incubated for 45 minutes at room temperature in the dark. Samples were spun down at 500 g for 5 minutes, cell pellets collected, and resuspended in 1:10,000 DAPI (Biolegend—#422801) in FACS buffer. Flow cytometry was then performed using the cytoflex according to the manufacturer's instructions.
(§2) T cells were evaluated with additional engineered TCRs for the impact of endogenous beta chains on pairing of both the inserted alpha chain and inserted beta chain. The experiment was performed as described herein except tetramer staining was used to measure MFI and the AAV inserts in Table 31 were used for transduction.

[2] = biological target: T2, … (RMF) WT1 peptide pulsed on target cells (HLA-02.01 positive T2 cell line; OCI-AML3); assay: cell-based or functional assay
[3] = biological target: T3, … (VLD) WT1 peptide pulsed on target cells (HLA-02.01 positive T2 cell line; OCI-AML3); assay: cell-based or functional assay
[4] = biological target: T3, … (VLD) WT1 peptide pulsed on target …; assay: cell-based or functional assay; remark: listed apart in the source
[5] = biological target: T1, VLD-Tetramer (pMHC tetramer with WT1 …); assay: flow cytometry, VLD-Tetramer staining of engineered T cells; TRAC + TRBC RNP
Experimental: as §1, §2

[6] = biological target: T2, … (RMF) WT1 peptide pulsed on target …; assay: cell-based or functional assay; remark: listed apart in the source
[7] = biological target: T3, … (VLD) WT1 peptide pulsed on target …; assay: cell-based or functional assay; remark: listed apart in the source
[8] = biological target: T3, … (VLD) WT1 peptide pulsed on target …; assay: cell-based or functional assay; remark: listed apart in the source
[9] = biological target: T2, … (RMF) WT1 peptide pulsed on target …; assay: cell-based or functional assay; remark: listed apart in the source
[10] = biological target: T3, … (VLD) WT1 peptide pulsed on target …; assay: cell-based or functional assay; remark: listed apart in the source

Mean % Tetramer+ (CD4+) [1]: 77.5%
Mean % Tetramer+ (CD8+) [1]: 73.6%
Mean Tetramer MFI (CD4+) [1]: 101000 MFI
Mean Tetramer MFI (CD8+) [1]: 102000 MFI
% CD4+ CD107a+; TRAC/TRBC; 50 nM RMF; T2 [2]: 4.67%
% CD8+ CD107a+; TRAC/TRBC; 50 nM RMF; T2 [2]: 2.82%
% CD4+ CD107a+; TRAC/TRBC; 0 nM VLD; T2 [3]: 4.62%
% CD4+ CD107a+; TRAC/TRBC; 0.005 nM VLD; T2 [3]: 5.06%
% CD4+ CD107a+; TRAC/TRBC; 0.05 nM VLD; T2 [3]: 4.23%
% CD4+ CD107a+; TRAC/TRBC; 0.5 nM VLD; T2 [3]: 4.74%
% CD4+ CD107a+; TRAC/TRBC; 5 nM VLD; T2 [3]: 4.44%
% CD4+ CD107a+; TRAC/TRBC; 50 nM VLD; T2 [3]: 4.52%
% CD8+ CD107a+; TRAC/TRBC; 0 nM VLD; T2 [3]: 3.15%
% CD8+ CD107a+; TRAC/TRBC; 0.005 nM VLD; T2 [3]: 12.2%
% CD8+ CD107a+; TRAC/TRBC; 0.05 nM VLD; T2 [3]: 34.2%
% CD8+ CD107a+; TRAC/TRBC; 0.5 nM VLD; T2 [3]: 53.3%
% CD8+ CD107a+; TRAC/TRBC; 5 nM VLD; T2 [3]: 65.8%
% CD8+ CD107a+; TRAC/TRBC; 50 nM VLD; T2 [3]: 73.2%
IFN-gamma release; TRAC/TRBC; 50 nM VLD; T2 [4]: 23600
IFN-gamma release; TRAC/TRBC; 500 nM VLD; T2 [4]: 31600
IFN-gamma release; only TRAC; 50 nM VLD; T2 [4]: 23700
IFN-gamma release; only TRAC; 500 nM VLD; T2 [4]: 27500
Mean % Tetramer+ (CD4+) [5]: 85.3%
Mean % Tetramer+ (CD8+) [5]: 81.9%
Mean Tetramer MFI (CD4+) [5]: 251000 MFI
Mean Tetramer MFI (CD8+) [5]: 190000 MFI
Caspase 3/7 integrated intensity; TRAC only; 500 nM RMF; T2 [6]: 4950
Caspase 3/7 integrated intensity; TRAC/TRBC; 500 nM RMF; T2 [6]: 6800
Caspase 3/7 integrated intensity; TRAC only; 0 nM VLD; T2 [7]: 12200
Caspase 3/7 integrated intensity; TRAC only; 0.005 nM VLD; T2 [7]: 21000
Caspase 3/7 integrated intensity; TRAC only; 0.05 nM VLD; T2 [7]: 199000
Caspase 3/7 integrated intensity; TRAC only; 0.5 nM VLD; T2 [7]: 1.01e+06
Caspase 3/7 integrated intensity; TRAC only; 5 nM VLD; T2 [7]: 1.14e+06
Caspase 3/7 integrated intensity; TRAC only; 50 nM VLD; T2 [7]: 1.28e+06
Caspase 3/7 integrated intensity; TRAC only; 500 nM VLD; T2 [7]: 1.31e+06
Caspase 3/7 integrated intensity; TRAC/TRBC; 0 nM VLD; T2 [7]: 12400
Caspase 3/7 integrated intensity; TRAC/TRBC; 0.005 nM VLD; T2 [7]: 21000
Caspase 3/7 integrated intensity; TRAC/TRBC; 0.05 nM VLD; T2 [7]: 311000
Caspase 3/7 integrated intensity; TRAC/TRBC; 0.5 nM VLD; T2 [7]: 964000
Caspase 3/7 integrated intensity; TRAC/TRBC; 5 nM VLD; T2 [7]: 1.26e+06
Caspase 3/7 integrated intensity; TRAC/TRBC; 50 nM VLD; T2 [7]: 1.04e+06
Caspase 3/7 integrated intensity; TRAC/TRBC; 500 nM VLD; T2 [7]: 1.19e+06
IL2 release; TRAC only; 0 nM VLD; T2 [8]: 338 pg/mL
IL2 release; TRAC only; 0.005 nM VLD; T2 [8]: 326 pg/mL
IL2 release; TRAC only; 0.05 nM VLD; T2 [8]: 284 pg/mL
IL2 release; TRAC only; 0.5 nM VLD; T2 [8]: 305 pg/mL
IL2 release; TRAC only; 5 nM VLD; T2 [8]: 442 pg/mL
IL2 release; TRAC only; 50 nM VLD; T2 [8]: 1050 pg/mL
IL2 release; TRAC only; 500 nM VLD; T2 [8]: 1570 pg/mL
IL2 release; TRAC/TRBC; 0 nM VLD; T2 [8]: 306 pg/mL
IL2 release; TRAC/TRBC; 0.005 nM VLD; T2 [8]: 196 pg/mL
IL2 release; TRAC/TRBC; 0.05 nM VLD; T2 [8]: 198 pg/mL
IL2 release; TRAC/TRBC; 0.5 nM VLD; T2 [8]: 248 pg/mL
IL2 release; TRAC/TRBC; 5 nM VLD; T2 [8]: 351 pg/mL
IL2 release; TRAC/TRBC; 50 nM VLD; T2 [8]: 764 pg/mL
IL2 release; TRAC/TRBC; 500 nM VLD; T2 [8]: 1200 pg/mL
% CD4+ TNFa+ IFNg+; TRAC/TRBC; 50 nM RMF; T2 [9]: 2.2%
% CD8+ TNFa+ IFNg+; TRAC/TRBC; 50 nM RMF; T2 [9]: 0.4%
% CD4+ TNFa+ IFNg+; TRAC/TRBC; 0 nM VLD; T2 [10]: 2.1%
% CD4+ TNFa+ IFNg+; TRAC/TRBC; 0.005 nM VLD; T2 [10]: 1.6%
% CD4+ TNFa+ IFNg+; TRAC/TRBC; 0.05 nM VLD; T2 [10]: 0.9%
% CD4+ TNFa+ IFNg+; TRAC/TRBC; 0.5 nM VLD; T2 [10]: 0.6%
% CD4+ TNFa+ IFNg+; TRAC/TRBC; 5 nM VLD; T2 [10]: 0.2%
% CD4+ TNFa+ IFNg+; TRAC/TRBC; 50 nM VLD; T2 [10]: 0.1%
% CD8+ TNFa+ IFNg+; TRAC/TRBC; 0 nM VLD; T2 [10]: 0.4%
% CD8+ TNFa+ IFNg+; TRAC/TRBC; 0.005 nM VLD; T2 [10]: 7.6%
% CD8+ TNFa+ IFNg+; TRAC/TRBC; 0.05 nM VLD; T2 [10]: 28.7%
% CD8+ TNFa+ IFNg+; TRAC/TRBC; 0.5 nM VLD; T2 [10]: 46.5%
% CD8+ TNFa+ IFNg+; TRAC/TRBC; 5 nM VLD; T2 [10]: 63.1%
% CD8+ TNFa+ IFNg+; TRAC/TRBC; 50 nM VLD; T2 [10]: 71.4%
B1: TCR-G (WT1-specific T-cell receptor) (TCR, V domains shown)
V domain 1: DQQVKQNSPSLSVQEGRISILNCDYTNSMFDYFLWYKKYPAEGPTFLISISSIKDKNEDGRFTVFLNKSAKHLSLHIVPSQPGDSAVYFCAARGQGNLIFGKGTKLSVKP
V domain 2: EAGVAQSPRYKIIEKRQSVAFWCNPISGHATLYWYQQILGQGPKLLIQFQNNGVVDDSQLPKDRFSAERLKGVDSTLKIQPAKLEDSAVYLCASSLYRGEQYFGPGTRLTVTE
notes: also called AV15-TCR-G
